# Assay results: patent US20100092974A1, “METHODS FOR SCREENING FOR MODULATORS OF CCRL2” (The Board of Trustees of the Leland Stanford Junior …, priority 2008, published 2010)
# Columns and labels:
# mCRTH2 = target: T1, mCRTH2 (Mus musculus, UniProt Q9Z2J6); experiment: radioligand binding to untransfected or mCRTH2-HA-transfected cells; conditions: data not shown
# T1 construct: The coding regions of mCCRL2, huCCRL2, mCRTH2, and huCCR10 were amplified from genomic DNA; expressed in transfected cells
# T1 sequence (Q9Z2J6 1-382): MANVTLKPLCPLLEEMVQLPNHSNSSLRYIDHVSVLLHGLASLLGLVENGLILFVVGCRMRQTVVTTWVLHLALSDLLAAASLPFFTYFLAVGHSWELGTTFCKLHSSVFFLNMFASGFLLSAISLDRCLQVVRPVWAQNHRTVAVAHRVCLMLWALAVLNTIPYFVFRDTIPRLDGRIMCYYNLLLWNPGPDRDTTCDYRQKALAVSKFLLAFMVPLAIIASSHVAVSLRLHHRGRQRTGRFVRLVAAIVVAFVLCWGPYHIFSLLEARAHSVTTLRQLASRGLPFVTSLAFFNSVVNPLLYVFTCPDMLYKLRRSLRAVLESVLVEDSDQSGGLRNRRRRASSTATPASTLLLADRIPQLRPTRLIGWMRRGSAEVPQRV
# huCCRL2 = target: T2, huCCRL2 (Homo sapiens, UniProt O00421); experiment: immunofluorescence-based chemerin-binding assay, huCCRL2-HA L1.2; conditions: read-out: EC50, untagged chemerin vs His8-tagged chemerin binding; 10 nM His8-tagged serum form chemerin, 30 min on ice, anti-His6 PE
# T2 construct: The coding regions of mCCRL2, huCCRL2, mCRTH2, and huCCR10 were amplified from genomic DNA; expressed in transfected cells
# T2 sequence (O00421 1-344): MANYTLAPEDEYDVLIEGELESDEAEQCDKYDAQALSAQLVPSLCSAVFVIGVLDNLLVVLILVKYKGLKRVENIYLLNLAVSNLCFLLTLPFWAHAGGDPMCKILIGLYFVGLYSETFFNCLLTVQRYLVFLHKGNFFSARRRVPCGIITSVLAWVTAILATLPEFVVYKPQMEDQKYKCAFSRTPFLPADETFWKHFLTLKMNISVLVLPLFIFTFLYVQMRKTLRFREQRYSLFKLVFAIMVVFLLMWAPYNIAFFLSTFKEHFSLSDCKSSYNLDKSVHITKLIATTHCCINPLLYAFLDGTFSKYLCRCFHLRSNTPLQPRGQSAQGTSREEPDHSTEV
# mCMKLR1 = target: T3, mCMKLR1 (Mus musculus, UniProt P97468); experiment: immunofluorescence-based chemerin-binding assay, mCMKLR1-HA L1.2; conditions: 10 nM His8-tagged chemerin, anti-His6 PE
# T3 construct: expressed in transfected cells; host or cells: L1.2 mouse pre-B lymphoma cells
# T3 sequence (P97468 1-371): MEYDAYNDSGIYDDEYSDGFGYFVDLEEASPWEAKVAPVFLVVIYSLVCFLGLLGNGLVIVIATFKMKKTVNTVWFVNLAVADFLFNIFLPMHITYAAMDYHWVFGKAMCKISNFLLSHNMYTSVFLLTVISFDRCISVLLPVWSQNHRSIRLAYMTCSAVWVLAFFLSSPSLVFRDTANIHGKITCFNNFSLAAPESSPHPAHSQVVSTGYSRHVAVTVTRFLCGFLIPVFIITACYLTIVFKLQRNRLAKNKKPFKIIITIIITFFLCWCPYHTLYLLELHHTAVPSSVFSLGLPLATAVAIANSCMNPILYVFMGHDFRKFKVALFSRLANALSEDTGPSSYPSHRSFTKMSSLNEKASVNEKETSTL
# [1] = tested on: mouse peritoneal mast cells; experiment: intracellular calcium mobilization, freshly isolated peritoneal mast cells; assay type: cell-based; conditions: 1000 nM chemerin, 100 nM ATP
# Protocol: Chemoattractant-stimulated Ca^2+-mobilization was performed following Alliance for Cell Signaling protocol ID PP00000210. Cells (3×10^6/mL) were loaded with 4 μM Fluo4-AM and 0.16% Pluronic acid F-127 (Molecular Probes) in modified Iscove's medium (Iscove's medium with 1% heat inactivated bovine calf serum and 2 mM L-glutamine, Invitrogen) for 30 minutes at 37° C. The samples were mixed every 10 minutes during loading, washed once, resuspended at up to 2×10^6/mL in the same buffer, and allowed to rest in the dark for 30 minutes at room temperature. Chemoattractant-stimulated change in Ca^2+-sensitive fluorescence of Fluo-4 was measured over real-time with a FACsScan flow cytometer and CellQuest software (BD Biosciences) at room temperature under constant stirring (500 rpm). Fluorescent data were acquired continuously up to 1024 seconds at 1-second intervals. The samples were analyzed for 45 seconds to establish basal state, removed from the nozzle to add the stimuli, and then returned to the nozzle. Mean channel fluorescence over time was analyzed with FlowJo (TreeStar, Ashland, Oreg., USA) software. […] 500 μl of these chemerin-loaded cells were added to mCMKLR1/L1.2 cells loaded with Fluo4-AM, and calcium mobilization was evaluated.
# [2] = tested on: mouse peritoneal mast cells; experiment: chemerin internalization assay, peritoneal mast cells; assay type: cell-based; conditions: 10 nM His8-tagged serum form chemerin
# Protocol: The primary cells were also stained with F4/80 and c-kit mAbs. Secondary anti-His6 PE was added to the cells and incubated for 30 minutes on ice. […] The cells were incubated for 5 minutes on ice with either PBS or acid wash buffer (0.2 M acetic acid, 0.5 M NaCl), and then analyzed by flow cytometry. Mast cells were identified by gating on SSC^high F4/80^− c-kit^+ cells.
substance,measurement,setting,value
"chemerin: protein ligand for signaling receptor CMKLR1; serum form human chemerin expressed in baculovirus-infected insect cells, His8-tag removed",radiolabeled chemerin binding,mCRTH2,no binding was detected
same,EC50,huCCRL2,7 nM
same,chemerin binding,mCMKLR1,unable to detect
same,intracellular calcium mobilization,[1],did not trigger
same,chemerin internalization (acid wash),[2],did not internalize
